Data from patent publication US6670452B2, “Non-naturally occurring lipoprotein particle” (University of Strathclyde, priority 1996, dated 2003).
Entries after “also recorded” stand apart in the source; their conditions may differ. No end group written: not given here. lipid anchor = not defined here

Tests used:
U937 cells = experiment: U937 cell growth (proliferation) assay; type: cell-based; conditions: DFCS 5% v/v, peptide 0.03 mol/mol cholesterol oleate, 72 hours, range of cholesterol concentrations
Method: U937 stock cultures were grown at 37° C. in RPMI 1640 media supplemented glutamine (10 mM), gentamicin (50 μg/ml), fungizone (0.5 μg/ml) and 10% (v/v) foetal calf serum (FCS). Cells were maintained in a humidified 5% CO2, atmosphere between 1-8×10^5 cells/ml and sub-cultured twice weekly.
All growth assays were conducted over 72 hours in 24 well plates unless otherwise indicated. One day before each growth experiment, cells were centrifuged at 1500 rpm for 5 minutes and resuspended in RPM: medium containing 5% (v/v) delipidated foetal calf serum (DFCS) to initiate cholesterol starvation and up regulate LDL receptors. Cells were collected by centrifugation and seeded at 1×10^5/well. Appropriate amounts of cholesterol (either LDL, microemulsion or nLDL) were then added after filtration (0.2 μm) and the well volume made up to 1 ml with RPMI containing 5% (v/v) DFCS. After 72 hours an aliquot of each well was diluted with PBS and the number of cells present determined in triplicate by Coulter Counter. Different concentrations were repeated four or eight times depending on the experiment. Three wells per experiment were checked at random before commencement of incubation to ensure a uniform cell density was achieved. […] In all cases, the mean starting cell densities of control resells were between 0.95 and 1.05×10^5 cells/ml.

[1] = Zeta potential measurement; type: physicochemical; conditions: for Zeta potential increase at low peptide concentrations: below 0.2 moles/mole CO, diameter unchanged; for Changes of mean number diameter and zeta potential in altered surface lipid formulations (FIG. 10): microemulsion formulations with PC, SM, UC, TO, CO; for Zeta potential reached with increasing peptide concentration: plateau / constant value, FIG. 8, pH 8.0 Tris, 25° C.
Method: Samples were diluted 1 in 5 with 0.01M Tris buffer (pH 8.0) and zeta potential measured at 25° C. using the Zetasizer® 4 (Malvern Instruments). The applied voltage was 150V in each case and duty cycling was used to limit the cell current to 20 mA. All results quoted are the mean and standard deviation of at least 10 measurements.

[2] = Particle size by photon correlation spectroscopy; type: physicochemical; conditions: for Peptide concentration producing increases in diameter: FIG. 8; for Effect of increasing peptide concentration on particle diameter: FIG. 8, Number Mean Diameter
Method: Particle size analysis was carried out using photon correlation spectroscopy (Zetasizer® Model 4, Malvern Instruments, Malvern, (UK). Before analysis samples were diluted with Tris-HCl buffer (0.01M) and filtered (0.2 μm). Sizing measurements were carried out at a fixed angle of 90° to the incident beam. The correlator was operated in parallel mode to allow for more accurate size distribution measurements. The cumulants method of analysis was used to calculate the mean sample size weighted according to the intensity of scattered light (z-average diameter). Since this diameter is weighted strongly on favour of large particles, Rayleigh theory was used to convert intensity distributions into number distributions [^12]. The viscosity and refractive index values of pure water were used in the size calculations. All results quoted are the mean and standard deviation of at least 10 measurements.

B16 cells = experiment: 14C-nLDL cell binding assay at 4° C.; conditions: peptide 0.03 mol/mol cholesterol
Method: The required quantity of 14C-cholesteryl oleate (0.5 μCi-/mmol CO, supplied dissolved in toluene) was mixed if required with ten times its volume of DMSO prior to addition to stirred nLDL heated at 55° C. in a water bath. After incubation for 5 hours the mixture was passed down a Sephadex G-25M gel exclusion chromatography column (bed volume 10 ml) eluted with PBS. Fractions (1 ml) were collected their absorbance (300 nm) and 14C-cholesteryl oleate activity measured. Labelled preparations were filter sterilised (0.2 μm) and stored at 4° C. under N2 before use.
B16 cells were maintained in RPM: 1640 medium supplemented with 10% v/v FCS incubated at 37° C. in a 5% CO2 in air atmosphere. Confluent cultures were trypsinised, harvested and re-seeded at a dilution of 1 in 20 in fresh medium.
B16 cells were harvested in the log growth phase, washed by centrifugation and re-seeded into 24 well plates 1×10^5 cells/ml in media containing 10 v/v DFCS. After overnight incubation the cells were cooled to 4° C. for 1 hour, the media aspirated and replaced with ice cold media containing 10% v/v DFCS, supplemented with 14C-nLDL at a cholesterol concentration of 0.08 mmol/l. Four replicate wells were used for each concentration. Cells were then incubated at 4° C. for 4 hours with occasional rocking, the media aspirated and cells washed three times with ice cold PBS/BSA buffer (2 mg/ml BSA in PBS) followed by two ten minute incubations with ice cold PBS/BSA. Three final washes with ice cold PBS were then conducted. The 14C-cholesteryl oleate was extracted with hexane/isocropanol for 30 minutes at room temperature, aspirated and then mixed with 3 ml of scintillation fluid prior to counting. Cellular protein left in the well after extraction was assayed using Peterson's modification of the Lowry method^14. Sodium deoxycholate (1.5 mg/ml) was added to solubilise the protein, which was then precipitated by the addition of trichloroacetic acid (72% w/v), pelleted by centrifugation (5,000 rpm 10 minutes), the supernatant discarded and the pellet solubilised in Lowry reagent at room temperature for 20 minutes. Folin Ciocalteu's reagent was added, the solutions mixed and the colour allowed to develop for 30 minutes prior to absorbance measurements at 690 nm using a plate reader. A calibration curve was clotted from BSA standards ranging from 20 to 200 μg/ml.

Substance	Growth of U937 cells induced by different nLDL preparations (FIG. 4) (U937 cells)	Difference in zeta potential between the lipid formulations ([1]; FIG. 10)	Zeta potential increase at low peptide concentrations [1]	Changes of mean number diameter and zeta potential in altered surface lipid formulations (FIG. 10) [1]	Zeta potential reached with increasing peptide concentration [1]	Peptide concentration producing increases in diameter [2]	Effect of increasing peptide concentration on particle diameter [2]	Total binding curve to B16 cells (FIG. 11) (B16 cells)	Effect of peptide on zeta potential ([1]; increasing peptide concentrations, FIG. 8)
Peptide A: eleven amino acids Apo B binding site peptide with both C and N terminal lipid anchors (FIG. 7) ({lipid anchor}-LRLTRKRGLKL; not fully specified (C-terminus); reading uncertain; also: C-terminal lipid anchor)	least effective	significant difference in zeta potential between the lipid formulations	roughly equal	reversal of zeta potential with little change in diameter	around +17 mV	0.5 moles /mole CO	Below 0.5 moles/mole Co Peptide A has no effect on size	–	–
Peptide B: eleven amino acid Apo B binding site peptide without the C-terminal cholesterol anchor (FIG. 7) ({lipid anchor}-GTTRLTRKRGLKL; not fully specified; reading uncertain)	greatest increase in proliferation	–	roughly equal	reversal of zeta potential with little change in diameter	~+15 mV	–	size also remains constant; also recorded: no effect at any concentration	saturable increase in total binding	–
Peptide C: twenty two amino acid peptide containing the Apo B binding region, with both lipid anchors (FIG. 7) ({lipid anchor}-YKLQGTTRLTRKRGLKLATALS; not fully specified (C-terminus); reading uncertain; also: C-terminal lipid anchor)	greatest increase in proliferation	–	double the effect	large alterations in both parameters	–	0.2 moles /mole CO	diameter almost doubles	saturable increase in total binding	reversal of zeta potential
Peptide D: twenty two amino acid peptide with the cholesterol anchor removed (FIG. 7) (YKLEGTTRLTRKRGLKLATALS; also: lipid anchor, cholesterol anchor removed)	greatest increase in proliferation	–	–	–	–	–	–	saturable increase in total binding	–
Peptide E: random, non Apo B binding region sequence based on the amino acids of the previous peptides (FIG. 7) (TGKRYRLKTLRTLKKTSLLEAA; ()..() Synthesised peptide analogue of the Apo B 100 binding site)	least effective	–	–	–	–	–	–	saturable increase in total binding	–
